The source of these data is patent US20060177907A1 (University of California, published 2006).

As a reminder, the Kd is the concentration at which binding is half-saturated. A word on the koff: it is the first-order rate constant of dissociation. One may read the kon as the second-order rate constant of association.

B2: HER3-ECD^I-II (residues 20-329), recombinant domains I and II of HER3 expressed in Drosophila S2 cells (receptor, not shown: small tags and cut ends)
chain: SEVGNSQAVCPGTLNGLSVTGDAENQYQTLYKLYERCEVVMGNLEIVLTGHNADLSFLQWIREVTGYVLVAMNEFSTLPLPNLRVVRGTQVYDGKFAIFVMLNYNTNSSHALRQLRLTQLTEILSGGVYIEKNDKLCHMDTIDWRDIVRDRDAEIVVKDNGRSCPPCHEVCKGRCWGPGSEDCQTLTKTICAPQCNGHCFGPNPNQCCHDECAGGCSGPQDTDCFACRHFNDSGACVPRCPQPLVYNKLTFQLEPNPHTKYQYGGVCVASCPHNFVVDQTSCVRACPPDKMEVDKNGLKMCEPCGGLCPK
notes: Monomer by light scattering and ultracentrifugation; The N-terminal Drosophila leader comes from the vector; the protein is secreted; also called HER3^I-II; H3 I-II
B3: HER3^I-II V110A (receptor, not shown: small tags and cut ends)
chain: SEVGNSQAVCPGTLNGLSVTGDAENQYQTLYKLYERCEVVMGNLEIVLTGHNADLSFLQWIREVTGYVLVAMNEFSTLPLPNLRVVRGTQAYDGKFAIFVMLNYNTNSSHALRQLRLTQLTEILSGGVYIEKNDKLCHMDTIDWRDIVRDRDAEIVVKDNGRSCPPCHEVCKGRCWGPGSEDCQTLTKTICAPQCNGHCFGPNPNQCCHDECAGGCSGPQDTDCFACRHFNDSGACVPRCPQPLVYNKLTFQLEPNPHTKYQYGGVCVASCPHNFVVDQTSCVRACPPDKMEVDKNGLKMCEPCGGLCPK
notes: also called H3^I-II V110A
B4: trx-hrg, thioredoxin-heregulin fusion with a C-terminal His and S-tag (ligand)
chain: SHLVKCAEKEKTFCVNGGECFMVKDLSNPSRYLCKCPNEFTGDRCQNYVMASFYKHLGIEF
notes: Made as in Landgraf et al. 1998; also called S-tagged hrg; immobilized hrg; not shown: thioredoxin; C-terminal His tag and S-tag
B5: HER3^I-II N44A (receptor, not shown: small tags and cut ends)
chain: SEVGNSQAVCPGTLNGLSVTGDAEAQYQTLYKLYERCEVVMGNLEIVLTGHNADLSFLQWIREVTGYVLVAMNEFSTLPLPNLRVVRGTQVYDGKFAIFVMLNYNTNSSHALRQLRLTQLTEILSGGVYIEKNDKLCHMDTIDWRDIVRDRDAEIVVKDNGRSCPPCHEVCKGRCWGPGSEDCQTLTKTICAPQCNGHCFGPNPNQCCHDECAGGCSGPQDTDCFACRHFNDSGACVPRCPQPLVYNKLTFQLEPNPHTKYQYGGVCVASCPHNFVVDQTSCVRACPPDKMEVDKNGLKMCEPCGGLCPK
notes: also called H3 I-II Mutant N44A

In experiment [1] the target is T1, HER3^I-IV E64A (human, UniProt P21860 20-643).
T1 construct: also called H3^I-IV E64A
The experiment is described as follows: native gel mobility shift. The protocol:
(§1) FIG. 12. […] HER3^I-IV and the HER3^I-IV mutants were analyzed on a native Phast gel (10-15%) in the absence (−) and presence (+) of equimolar hrg. The HER3^{I-IV E64A} was also analyzed in the absence (lane 2) and presence (lane 4) of hrg. Formation of a hrg-HER3^I-IV complex is observed with HER3^I-IV, but not with […], B, HER3^I-IV and HER3^{I-IV E64A} were analyzed in a “pull down assay” in which S-tagged hrg was immobilized on S-protein resin (lanes 4-9) and HER3^I-IV could be specifically eluted with 1 μM hrg and detergent (lane 6 and 8), but HER3^{I-IV E64A} could not be eluted with PBS or 1 μM hrg (lanes 5 and 7). A small amount of HER3^{I-IV E64A} could be eluted with detergent (lane 9) which was probably due to some binding or non-specific interaction.
To determine the effects of cleavage of HER3^I-IV on its ability to bind hrg, a gel mobility shift assay was performed. […] (FIG. 12A).

For experiment [2], the target named is T2, HER3-ECD^I-IV, soluble extracellular domains of recombinant HER3 purified from Chinese hamster ovary cells (human, UniProt P21860 20-643).
T2 construct: also called nonproteolyzed HER3-ECD^I-IV
The experiment is described as follows: method not given; compared with the Kd of HER3-ECD^I-II (68 nM); form of hrg not stated.

In experiment [3] the target is HER3^FL E64A (residues 20-1342 with a mutation of E64A), transiently expressed on COS 7 cells (human, UniProt P21860 20-1342). The experiment is described as follows: specific binding of radio-iodinated hrg to COS 7 cells transiently expressing the HER3 construct.
Experiment [4] deals with HER3^II-CTD (residues 184-1342), transiently expressed on COS 7 cells (human, UniProt P21860 184-1342). The experiment is described as above.
Chain of HER3^II-CTD (residues 184-1342), transiently expressed on COS 7 cells (P21860 184-1342 E560G/E1064G): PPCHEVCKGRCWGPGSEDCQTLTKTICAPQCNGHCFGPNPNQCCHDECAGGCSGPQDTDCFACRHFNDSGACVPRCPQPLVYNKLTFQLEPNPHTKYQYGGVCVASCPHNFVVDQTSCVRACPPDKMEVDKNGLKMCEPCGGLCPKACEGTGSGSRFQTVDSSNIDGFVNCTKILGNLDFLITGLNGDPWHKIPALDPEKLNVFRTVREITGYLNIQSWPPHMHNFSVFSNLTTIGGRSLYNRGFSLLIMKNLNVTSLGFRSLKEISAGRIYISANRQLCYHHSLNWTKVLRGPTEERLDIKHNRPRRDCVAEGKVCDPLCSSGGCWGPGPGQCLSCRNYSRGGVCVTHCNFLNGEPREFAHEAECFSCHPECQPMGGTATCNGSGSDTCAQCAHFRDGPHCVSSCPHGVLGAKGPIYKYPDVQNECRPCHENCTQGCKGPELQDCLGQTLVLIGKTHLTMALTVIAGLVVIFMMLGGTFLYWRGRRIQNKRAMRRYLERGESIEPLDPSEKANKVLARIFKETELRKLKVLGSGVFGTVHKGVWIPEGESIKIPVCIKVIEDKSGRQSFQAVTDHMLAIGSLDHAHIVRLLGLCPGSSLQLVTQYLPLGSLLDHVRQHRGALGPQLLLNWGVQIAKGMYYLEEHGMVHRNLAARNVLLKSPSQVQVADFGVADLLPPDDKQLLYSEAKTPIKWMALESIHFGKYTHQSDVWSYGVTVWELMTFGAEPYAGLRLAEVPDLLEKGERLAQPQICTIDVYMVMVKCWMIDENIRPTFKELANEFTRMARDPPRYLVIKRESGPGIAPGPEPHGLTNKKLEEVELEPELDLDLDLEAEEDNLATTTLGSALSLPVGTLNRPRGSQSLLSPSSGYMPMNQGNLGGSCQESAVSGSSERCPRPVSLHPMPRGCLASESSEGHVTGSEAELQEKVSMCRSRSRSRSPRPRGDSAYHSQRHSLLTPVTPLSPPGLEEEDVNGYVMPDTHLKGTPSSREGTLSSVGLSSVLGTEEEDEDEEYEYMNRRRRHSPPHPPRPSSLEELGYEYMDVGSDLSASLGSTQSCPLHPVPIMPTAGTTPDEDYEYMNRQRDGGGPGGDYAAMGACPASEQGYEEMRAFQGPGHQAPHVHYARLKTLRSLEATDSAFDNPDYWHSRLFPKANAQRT
The target of experiment [5] is T2, HER3-ECD^I-IV, soluble extracellular …. The experiment is described as follows: method not given; given as the reference for the SPR value of HER3-ECD^I-II (68 nM, trx-hrg immobilized); form of hrg not stated.
The target in experiment [6] is B4. The experiment is described as follows: SPR, trx-hrg immobilized (68 nM) compared with HER3-ECD^I-IV (2.3 nM). The protocol:
(§2) Trx-hrg (13 μM) in MES buffer (100 mM pH 6.0) was immobilized on a BIAcore CM5 chip using standard N-hydroxysuccinimide/1-ethyl-3-(3-dimethylaminopropyl)carbodiimide amine-coupling chemistry. The surface of the chip was blocked with ethanolamine and could be regenerated with 5.0 M NaCl and washes with running buffer (PBS+surfactant). HER3-ECD^I-II (filtered through a 0.1-μm filter unit (Millipore, Bedford, Mass.)) in running buffer was applied to the chip at various concentrations (in triplicate) to determine the dissociation constant. Data were analyzed with the BIAevaluation software. Competition experiments were carried out using hrg at an equimolar concentration to HER3-ECD^I-II.
(§3) To further confirm that HER3-ECD^I-II binds hrg, we analyzed the interaction by SPR (BIAcore). Trx-hrg fusion protein was immobilized on a BIAcore chip for these measurements. […] This interaction could be inhibited by stoichiometric concentrations of hrg.
A general note: SPR reads the build-up and loss of mass on a sensor chip optically.

Experiment [7] concerns the target B4. The experiment is described as follows: SPR (BIAcore), immobilized trx-hrg.
The target of experiment [8] is B4. In words: SPR (BIAcore), immobilized trx-hrg.
A further experiment deals with T3, HER3^I-II K51A (human, UniProt P21860 20-329).
T3 construct: also called H3^I-II K51A
In words: SPR (BIAcore), immobilized trx-hrg.

Another experiment concerns the target HER3^I-II V66A (human, UniProt P21860 20-329). The experiment is described as follows: SPR (BIAcore), immobilized trx-hrg.
The experiment “HER3^I-II V110A” concerns the target B3. The experiment is described as follows: SPR (BIAcore), immobilized trx-hrg.
The target of a further experiment is T4, HER3^I-II E43A (human, UniProt P21860 20-329).
T4 construct: also called H3 I-II Mutant E43A
T4 sequence (P21860 20-329 E43A): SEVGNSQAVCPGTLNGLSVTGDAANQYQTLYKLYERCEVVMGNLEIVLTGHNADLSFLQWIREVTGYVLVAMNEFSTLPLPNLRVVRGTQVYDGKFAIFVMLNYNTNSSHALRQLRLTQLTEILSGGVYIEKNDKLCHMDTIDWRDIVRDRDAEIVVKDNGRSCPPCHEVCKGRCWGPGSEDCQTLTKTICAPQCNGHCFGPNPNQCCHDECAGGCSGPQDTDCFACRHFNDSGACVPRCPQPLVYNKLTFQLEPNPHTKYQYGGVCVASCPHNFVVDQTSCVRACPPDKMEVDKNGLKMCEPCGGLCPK
In words: SPR (BIAcore), immobilized trx-hrg.

In the experiment “HER3^I-II N44A” the target is B5. In words: SPR (BIAcore), immobilized trx-hrg.
Experiment [9] concerns the target T1, HER3^I-IV E64A. The experiment is described as follows: pull-down on trx-hrg-coupled S-protein agarose. The protocol: as §1
To confirm that HER3^I-IVE64A has decreased binding affinity for hrg, we used a “pull down” assay in which we measured the HER3^I-IV and HER3^I-IVE64A that could be dissociated from immobilized thioredoxin-heregulin (trx-hrg) by the addition of hrg. Using trx-hrg coupled S-protein agarose, HER3^I-IV was eluted with hrg and detergent (FIG. 12B, lanes 6 and 8), but not with PBS (FIG. 12B, lane 4). No HER3^{I-IV E64A} could be recovered by elution with PBS, hrg or detergent (FIG. 12B, lanes 5, 7 and 9).

In experiment [10] the target is B2. In words: SPR (BIAcore), trx-hrg immobilized, HER3-ECD^I-II in solution. The protocol:
as §2, §3

Read-outs that look alike come from different tables or passages of the source.

B1: hrg, 60-residue EGF-like domain of human heregulin beta1 (residues 177-237) (ligand)
chain: SHLVKCAEKEKTFCVNGGECFMVKDLSNPSRYLCKCPNEFTGDRCQNYVMASFYKHLGIEF
notes: also called I^25 hrg
With B1, the binding result with HER3^I-IV E64A [1] is recorded as “no binding (tested: 1:1 molar ratio)”; in [3] it was “no binding”; in experiment [4] it was “no binding”. Moreover, the figures for the Kd in experiment [2] and in experiment [5] were 1.9 nM and 2.3 nM, respectively.
In the case of B2, the “fold lower binding affinity than HER3-ECD^I-IV” value in experiment [6] stood at 30 fold.
For the molecule B3, the “fold increase in binding affinity (against HER3^I-II)” value in [7] came to 4 fold; in experiment [8] it was 5 fold.
For B4, the Kd with HER3^I-II K51A was determined as 63 nM; with HER3^I-II V66A, 60.5 nM; in the experiment with HER3^I-II V110A, 15.4 nM; in the experiment with HER3^I-II E43A it was 63 nM; in the experiment with HER3^I-II N44A, 95.5 nM; in experiment [10], 68 nM. Besides, in the experiment with HER3^I-IV E64A [9], the binding result is on record as “no binding”. Also, the koff in experiment [10] is 0.00727 s⁻¹. Further, the kon in experiment [10] amounted to 107000 M⁻¹ s⁻¹.
With B5, the “fold decrease in binding affinity (against HER3^I-II)” value in experiment [7] is 1.5 fold.
